“Also recorded” adds a separate entry of the source.

The test system of test [1] is human induced pluripotent stem cells (iPSCs). Put plainly: Differentiation of iPSCs towards primitive streak (PS)-like mesendoderm (morphology, qPCR). It is filed as cell-based. The protocol:
BJC1-iPSCs were differentiated towards primitive streak-like mesendoderm cells for 2 days with indicated combination of CHIR99021 (3 μM) and FGF (20 ng/ml) in conjunction with the indicated signaling perturbations, qPCR was performed at day 2. […] FIG. 9C represents data from FACS analysis showing more than 97% cells at day 2 were positive for primitive streak genes MIXL1, Brachyury (T) and GSC. FIG. 9D represents the immunofluoresence results at day 2 showing the expression of MIXL1, Brachyury (T) and GSC after 2 day of primitive streak induction.
iPSCs from MRCS or BJ cell lines, or hESCs were differentiated into primitive streak-like mesendoderm cells and primitive streak mesendoderm cells respectively. Feeder-free iPSCs were maintained in mTeSR (Stem Cell Technologies) before differentiation. To differentiate iPSCs, iPSCs were digested with 1 mg/ml collagenase IV for 5-10 min at 37° C. into small clumps and placed on a fibronectin (FN, 10 μg/ml)-coated surface in medium containing activin A (25 ng/ml) and CHIR99021 (3 μM) for 1 day in a basal medium (DMEM: F12, 1% ITS, 2% B27, 2 mM L-Glutamine, 90 uM ß-mercaptoethanol), followed by Activin A (25 ng/ml), CHIR99021 (3 μM) and FGF (20 ng/ml) for subsequent 24 hours to differentiate toward primitive streak (PS)-like mesendoderm.
Quantitative real-time PCR was performed with Taqman expression assay using ABI PRISM 7900HT sequence Detection System (Applied Biosystems). Briefly, […] of total RNA was converted to cDNA using high capacity cDNA archive kit in 30 μl and then diluted to 500 μl. Quantitative real-time PCR was done as follows: initial denaturation for 2 min at 50° C., 10 min at 95° C., following 40 cycles of PCR (95° C. for 15 s, 60° C. for 1 min) by using 5 μl of 2× Master mix, 0.5 μl of probe and 4.5 μl of cDNA. All probes were designed with a 5′ fluoregenic 6-carboxylfluorescein, and a 3′ quencher, tetramethyl-6-carboxyrhodamine. The expression of human GAPDH was used to normalize gene expression levels.
(In general: In qPCR the cycle at which signal appears reflects the starting amount.)

Another test has as its system BJC1-iPSCs. As to the kind of experiment: Differentiation of PS-like mesendoderm towards lateral plate-like mesoderm (qPCR, cell number at day 10). It is filed as cell-based, human. The protocol: BJC1-iPSCs were differentiated towards mesoderm after 8 days of differentiation with indicated combination of FGF (20 ng/ml), Rock inhibitor Y27632 (5 uM) and Follistatin (100 ng/ml) in conjunction with the indicated signaling perturbations, qPCR was performed at day 10. […] BJC1-iPSCs were differentiated towards mesoderm after 8 days of differentiation with indicated combination of FGF (20 ng/ml), BMP4 (40 ng/ml), and Rock inhibitor Y27632 (5 uM) in conjunction with the indicated signaling perturbations, qPCR was performed at day 10. […] Mesoderm differentiation was induced with FGF (20 ng/ml), BMP4 (40 ng/ml), rock inhibitor Y27632 (5 μM, only used at the time of passage and remove the next day) and follistatin (100 ng/ml) for 8 days. Quantitative real-time PCR was performed with Taqman expression assay using ABI PRISM 7900HT sequence Detection System (Applied Biosystems). Briefly, […] of total RNA was converted to cDNA using high capacity cDNA archive kit in 30 μl and then diluted to 500 μl. Quantitative real-time PCR was done as follows: initial denaturation for 2 min at 50° C., 10 min at 95° C., following 40 cycles of PCR (95° C. for 15 s, 60° C. for 1 min) by using 5 μl of 2× Master mix, 0.5 μl of probe and 4.5 μl of cDNA. All probes were designed with a 5′ fluoregenic 6-carboxylfluorescein, and a 3′ quencher, tetramethyl-6-carboxyrhodamine. The expression of human GAPDH was used to normalize gene expression levels.

[2] abbreviates: compared with wnt3a (ACF vs AWF).
Setting [3] is: with FGF 20 ng/ml, BMP4 40 ng/ml, Y27632 5 uM, qPCR at day 10.

Regarding `Cc1cnc(-c2cnc(NCCNc3ccc(C#N)cn3)nc2-c2ccc(Cl)cc2Cl)[nH]1` [CHIR99021, 6-[2-[[4-(2,4-dichlorophenyl)-5-(5-methyl-1H-imidazol-2-yl)pyrimidin-2-yl]amino]ethylamino]pyridine-3-carbonitrile, reference compound], in test [1] (setting [2]), the “adherence of iPSCs to the dish” value was “promoted the adherence of iPSCs to the dish” and the “differentiation toward PS-like mesendoderm” value is reported as “promoted differentiation toward PS-like mesendoderm”.

As for `C[C@@H](N)[C@H]1CC[C@H](C(=O)Nc2ccncc2)CC1.Cl.Cl` [Y27632, (R)-(+)-trans-4-(1-Aminoethyl)-N-(4-Pyridyl)cyclohexanecarboxamide dihydrochloride, reference compound], the “expression of lateral plate mesoderm genes Hand1 and FOXF1” value in the test on BJC1-iPSCs (compared to NT4, dihydrochloride) is “increased the expression of lateral plate mesoderm genes Hand1 and FOXF1; also recorded: significantly increases the expression of lateral plate mesoderm genes”. Moreover, the “increase in cell number” value in the test with BJC1-iPSCs (compared with neurotrophi-4 (NT), day 10) is listed as 3.53±1.56 fold.

For “FGF: fibroblast growth factor; in one specific example FGF2”, in test [1] (addition of FGF at day 2), the “differentiation toward PS-like mesendoderm” value is recorded as “did not further enhance differentiation toward PS-like mesendoderm”. Also, the expression of mesoderm result in test [1] (in the presence of FGF at day 2) is recorded as “expression of mesoderm increased”.

B1: follistatin: protein encoded by the FST gene (protein, UniProt P19883 30-344, looked up)
Follistatin: GNCWLRQAKNGRCQVLYKTELSKEECCSTGRLSTSWTEEDVNDNTLFKWMIFNGGAPNCIPCKETCENVDCGPGKKCRMNKKNKPRCVCAPDCSNITWKGPVCGLDGKTYRNECALLKARCKEQPELEVQYQGRCKKTCRDVFCPGSSTCVVDQTNNAYCVTCNRICPEPASSEQYLCGNDGVTYSSACHLRKATCLLGRSIGLAYEGKCIKAKSCEDIQCTGGKKCLWDFKVGRGRCSLCDELCPDSKSDEPVCASDNATYASECAMKEAACSSGVLLEVKHSGSCNSISEDTEEEEEDEDQDYSFPISSILEW
Consider B1, for which the “expression of lateral plate mesoderm genes Hand1 and FOXF1 and mesenchymal stem cell genes CD44 and CD105” value with BJC1-iPSCs (presence compared to absence of Follistatin, qPCR at day 10) is reported as “significantly increases the expression”. Moreover, in the test with BJC1-iPSCs (setting [3]), the “endodermal differentiation Sox17 and FOXA1” value is “inhibited endodermal differentiation”; the mesodermal differentiation result is listed as “promoting mesodermal differentiation”.

B2: activin A: Activin A formed by two activin βA subunits, member of the TGF-β superfamily (protein, UniProt P08476 311-426, looked up)
Inhibin beta A chain: GLECDGKVNICCKKQFFVSFKDIGWNDWIIAPSGYHANYCEGECPSHIAGTSGSSLSFHSTVINHYRMRGHSPFANLKSCCVPTKLRPMSMLYYDDGQNIIKKDIQNMIVEECGCS
modifications: Inhibin beta A chain
B2: the “differentiation towards PS-like mesendoderm expressing T, MIXL1 and GSC” value in test [1] (activin 25-100 ng/ml with CHIR99021 3 μM and FGF 20 ng/ml, qPCR at day 2) is on record as “enhanced differentiation towards PS-like mesendoderm”. Also, the “expression of endodermal marker Sox17” value in test [1] (activin 25-100 ng/ml, qPCR at day 2) is on record as “increased with the dose”. In test [1] (qPCR at day 2), the “activin A concentration at which the ratio of increased MIXL1 or T to Sox17 was the highest” value is 25 ng/mL.

B3: noggin: antagonism of BMP signaling (protein, UniProt Q13253 28-232, looked up)
Noggin: QHYLHIRPAPSDNLPLVDLIEHPDPIFDPKEKDLNETLLRSLLGGHYDPGFMATSPPEDRPGGGGGAAGGAEDLAELDQLLRQRPSGAMPSEIKGLEFSEGLAQGKKQRLSKKLRRKLQMWLWSQTFCPVLYAWNDLGSRFWPRYVKVGSCFSKRSCSVPEGMVCKPSKSVHLTVLRWRCQRRGGQRCGWIPIQYPIISECKCSC
With B3, the “expression of ectodermal gene Sox1” value with BJC1-iPSCs (in the absence of BMP4 or in the presence of noggin, qPCR at day 10) is reported as 38.65 fold.

B4: BMP4: bone morphogenetic protein (protein, UniProt P12644 293-408, looked up)
Bone morphogenetic protein 4: SPKHHSQRARKKNKNCRRHSLYVDFSDVGWNDWIVAPPGYQAFYCHGDCPFPLADHLNSTNHAIVQTLVNSVNSSIPKACCVPTELSAISMLYLDEYDKVVLKNYQEMVVEGCGCR
In the case of B4, the “BMP4 concentration that led to the highest expression of lateral plate mesoderm markers” value in the test on BJC1-iPSCs (with FGF 20 ng/ml, Y27632 5 uM, Follistatin 100 ng/ml, qPCR at day 10) was determined as 40 ng/mL.

The values above are taken from patent US11180733B2, “Method of generating mesenchymal stem cells and uses thereof” (AGENCY FOR SCIENCE, TECHNOLOGY AND RESEARCH, priority 2016, dated 2021).
